According to US20180318438A1, “ANTIBODY DRUG CONJUGATES OF KINESIN SPINDEL PROTEIN (KSP) INHIBITORS WITH ANTI-TWEAKR-ANTIBODIES” (Bayer Pharma Aktiengesellschaft, priority 2015, published 2018):

T1: TWEAKR on human cells (NCI-H292, 786-O, A498, SK-HEP-1, HEK293) (human, UniProt Q9NP84 28-129)
T1 sequence: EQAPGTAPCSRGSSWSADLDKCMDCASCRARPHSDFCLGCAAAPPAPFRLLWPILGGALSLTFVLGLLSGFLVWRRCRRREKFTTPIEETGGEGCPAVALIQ

T2: TPP-2305, hTNFRSF12 amino acids 28-80 (extracellular domain of TWEAKR) (human, UniProt Q9NP84 28-80)
T2 construct: Bought recombinant antigen (Fitzgerald 30R-AT080); also called TWEAKR extracellular domain; 30R-AT080 (Fitzgerald)
T2 sequence: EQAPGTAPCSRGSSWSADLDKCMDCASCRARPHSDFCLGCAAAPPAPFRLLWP


How the values were obtained:
[1] = test system: KPL4: human breast cancer cell line; test: Cytotoxicity, MTT assay; format: cell-based; conditions: KPL4, 96 h, metabolites, KPL4 cells
Procedure: The cells were cultivated according to the standard method using the growth media listed under C-1. The test is carried out by detaching the cells with a solution of Accutase in PBS (Biochrom AG #L2143), pelleting, resuspending in culture medium, counting and sowing into a 96-well culture plate with white bottom (Costar #3610) (NCI H292: 2500 cells/well, KPL-4: 1200 cells/well, SK-HEP-1: 1500 cells/well in a total volume of 100 μl). The cells were then incubated in an incubator at 37° C. and 5% carbon dioxide. After 48 h, the medium was replaced. The metabolites in 10 μl of culture medium in concentrations from 10^−5M to 10^−13M were then pipetted to the cells (in triplicate), and the assay was then incubated in an incubator at 37° C. and 5% carbon dioxide. […] To this end, the MTT reagent was incubated with the cells for 4 h, followed by lysis of the cells overnight by addition of the detergent. The dye formed was detected at 570 nm (Infinite M1000 pro, Tec an). The measured data were used to calculate the IC50 of the growth inhibition using the DRC (dose response curve). The proliferation of cells which were not treated with test substance but were otherwise identically treated was defined as the 100% figure.

[2] = test system: NCI-H292: human mucoepidermoid lung carcinoma cells; test: Cytotoxicity, MTT assay; format: cell-based; conditions: NCI-H292, 96 h, metabolites
Caco-2 cells = test: Cell permeability, flux assay using Caco-2 cells; conditions: basal to apical, 2 h
[3] = molecular target: T1, TWEAKR on human cells (NCI-H292, 786-O, …); test: cell-based or functional assay
[4] = molecular target: T2, TPP-2305, hTNFRSF12 amino acids 28-80 …; test: SPR (Biacore T200), antibody captured by anti-human Fc on CM5, TWEAKR extracellular domain 3.9-500 nM as analyte, 25 C; monovalent KD
[5] = molecular target: T1, TWEAKR on human cells (NCI-H292, 786-O, …); test: flow cytometry on NCI-H292 cells, dose curve from 10 ug/ml in 1:5 steps, anti-kappa-FITC secondary
[6] = molecular target: T1, TWEAKR on human cells (NCI-H292, 786-O, …); test: flow cytometry on SK-HEP-1 cells, dose curve from 10 ug/ml in 1:5 steps, anti-kappa-FITC secondary
[7] = molecular target: T2, TPP-2305, hTNFRSF12 amino acids 28-80 …; test: SPR (Biacore T200), antibody captured by anti-human Fc on CM5, TWEAKR extracellular domain 3.9-500 nM as analyte, 25 C

Agonistic activity [%] of the TWEAK-ind. agonism (NF-kappaB reporter gene assay, HEK293) [3] | Kd [4] | EC50 [5] | EC50 [6] | Molecule | further results
– | – | – | – | CC(C)(C)[C@H](c1cc(-c2cc(F)ccc2F)cn1Cc1ccccc1)N(CC[C@H](N)C(=O)NCCNC(=O)CNC(=O)CC(SC[C@H](N)C(=O)O)C(=O)O)C(=O)CO (stereo partly drawn) [Example M13, 4-[(2-{[2-({(2S)-2-Amino-4-[{(1R)-1-[1-benzyl-4-(2,5-difluorophenyl)-1H-pyrrol-2-yl]-2,2-dimethylpropyl}(glycoloyl)amino]butanoyl}amino)ethyl]amino}-2-oxoethyl)amino]-2-{[(2R)-2-amino-2-carboxyethyl]sulphanyl}-4-oxobutanoic acid/trifluoroacetic acid (1:1)] | IC50 [1]: 169 nM; IC50 [2]: 152 nM
– | – | – | – | CC(C)(C)[C@H](c1cc(-c2cc(F)ccc2F)cn1Cc1ccccc1)N(CC[C@H](N)C(=O)N[C@H](CCC(=O)O)C(=O)O)C(=O)CO.O=C(O)C(F)(F)F [Example M25, N-{(2S)-2-Amino-4-[{(1R)-1-[1-benzyl-4-(2,5-difluorophenyl)-1H-pyrrol-2-yl]-2,2-dimethylpropyl}(glycoloyl)amino]butanoyl}-L-glutamic acid/trifluoroacetic acid (1:1)] | Papp (B-A) (Caco-2 cells): 0.81 ×10⁻⁶ cm/s
– | – | – | – | CC(C)(C)[C@H](c1cc(-c2cc(F)ccc2F)cn1Cc1ccccc1)N(CC[C@H](N)C(=O)NCCNC(=O)CNC(=O)CC(SC[C@H](N)C(=O)O)C(=O)O)C(=O)CO.O=C(O)C(F)(F)F (stereo partly drawn) [Example M26, 4-[(2-{[2-({(2S)-2-Amino-4-[{(1R)-1-[1-benzyl-4-(2,5-difluorophenyl)-1H-pyrrol-2-yl]-2,2-dimethylpropyl}(glycoloyl)amino]butanoyl}amino)ethyl]amino}-2-oxoethyl)amino]-2-{[(2R)-2-amino-2-carboxyethyl]sulphanyl}-4-oxobutanoic acid/trifluoro acetic acid (1:1)] | Papp (B-A) (Caco-2 cells): 1.3 ×10⁻⁶ cm/s
14% | 0.7 nM | – | – | ITEM-4 (antibody, V domains shown, Murine IgG2b, bought (eBioscience 13-9018); also called anti-TWEAKR AK1A; AK1A) VH: QVQLQQSGPELVKPGASVKMSCKASGYTFTDFIIAWVKQRTGQGLEWIGEIYPGTGRTYYSEKFRGKATLTADKSSNTAYMQLSSLTSVDSAVYFCARRTIYYDYDGDYWGQGTTLTVSS VL: DIVMTQAAFSNPVTLGTSASISCRSSKSLLHSNGITYLYWYLQKPGQSPQLLIYQMSNLASGVPDRFSSSGSGTDFTLRISRVEAEDVGVYYCAHNLELPWTFGGGTKLELK | –
3% | 0.33 nM | 0.54 nM | 0.83 nM | TPP-7006 (antibody, human IgG1, kappa, V domains shown, also called anti-TWEAKR AK1C; AK1C) VH: QVQLQQSGPELVKPGASVKMSCKASGYTFTDFIIAWVKQRTGQGLEWIGEIYPGTGRTYYSEKFRGKATLTADKSSNTAYMQLSSLTSVDSAVYFCARRTIYYDYDGDYWGQGTTLTVSS VL: DIVMTQAAFSNPVTLGTSASISCRSSKSLLHSNGITYLYWYLQKPGQSPQLLIYQMSNLASGVPDRFSSSGSGTDFTLRISRVEAEDVGVYYCAHNLELPWTFGGGTKLELKR | –
4% | 1.4 nM | 0.8 nM | 0.9 nM | TPP-7007 (antibody, human IgG1, kappa, V domains shown, also called anti-TWEAKR AK1D; AK1D) VH: QVQLVQSGAEVKKPGASVKVSCKASGYTFTDFIIAWVKQAPGQGLEWIGEIYPGTGRTYYSEKFRGKATLTADTSTSTAYMELSSLRSEDTAVYFCARRTIYYDYDGDYWGQGTLVTVSS VL: DIVMTQSPLSLPVTPGEPASISCRSSKSLLHSNGITYLYWYLQKPGQSPQLLIYQMSNLASGVPDRFSGSGSGTDFTLKISRVEAEDVGVYYCAHNLELPWTFGQGTKVEIKR | –
15% | 6 nM | 8.9 nM | – | TPP-7075 (antibody, human IgG1, kappa, V domains shown) VH: QVQLVQSGAEVKKPGASVKVSCKASGYTFTDFIIAWVKQAPGQGLEWIGEIYPGTGRTYYSEKFRGKATLTADTSTSTAYMELSSLRSEDTAVYFCARRTIYYDYDGDYWGQGTLVTVSS VL: DIVMTQSPLSLPVTPGEPASISCRSSKSLLHSSGITYLYWYLQKPGQSPQLLIYQMSNLASGVPDRFSGSGSGTDFTLKISRVEAEDVGVYYCAHNLELPWTFGQGTKVEIKR | Antagonistic activity IC50 [M] (NF-kappaB reporter gene assay in the presence of Tweak 200 ng/ml) [3]: 2.4e-08 M
0.1% | 0.26 nM | 0.5 nM | 0.54 nM | TPP-7005 (antibody, human IgG1, kappa, V domains shown, also called anti-TWEAKR AK1B; AK1B) VH: QVQLVQSGAEVKKPGASVKISCKVSGYTFTDFIIAWVKQAPGKGLEWIGEIYPGTGRTYYSEKFRGKATLTADKSTSTAYMELSSLRSEDTAVYYCARRTIYYDYDGDYWGQGTTVTVSS VL: DIVMTQSPLSLPVTPGEPASISCRSSKSLLHSNGITYLYWYLQKPGQSPQLLIYQMSNLASGVPDRFSSSGSGTDFTLKISRVEAEDVGVYYCAHNLELPWTFGGGTKVEIKR | koff [7]: 0.0018 s⁻¹; kon [7]: 6.8e+06 M⁻¹ s⁻¹; Antagonistic activity IC50 [M] (NF-kappaB reporter gene assay in the presence of Tweak 200 ng/ml) [3]: 2e-11 M
